One substance from US20040253709A1 can be followed below.

This assay has as its target human IgE (human) (UniProt P01854). The assay is described as follows: Western blots of His tag IPSE incubated with human IgE (100-100,000 ng/ml), compared with IgG; called competitive inhibition experiments in paragraph 33.

On to recombinant His tag IPSE fusion protein, for which the fold higher affinity than to IgG stood at 100 times.
